# According to paper PMC4858563:
# Target: Tula virus (TULV) Gn glycoprotein on virions (Tula virus (TULV), strain Moravia)
# Assay: cryo-EM structure
substance,measurement,value
Tula virus (TULV) Gn glycoprotein on virions (natural protein),stoichiometry N,4
